Source: patent US20250115678A1 (AstraZeneca / MedImmune, published 2025)
Where a chain is given by its changes, count along the chain named.

T1: human LRRC15 recombinant extracellular domain protein (human, UniProt Q8TF66 22-538)
T1 construct: extracellular domain; also called LRRC15 human
T1 sequence (looked up): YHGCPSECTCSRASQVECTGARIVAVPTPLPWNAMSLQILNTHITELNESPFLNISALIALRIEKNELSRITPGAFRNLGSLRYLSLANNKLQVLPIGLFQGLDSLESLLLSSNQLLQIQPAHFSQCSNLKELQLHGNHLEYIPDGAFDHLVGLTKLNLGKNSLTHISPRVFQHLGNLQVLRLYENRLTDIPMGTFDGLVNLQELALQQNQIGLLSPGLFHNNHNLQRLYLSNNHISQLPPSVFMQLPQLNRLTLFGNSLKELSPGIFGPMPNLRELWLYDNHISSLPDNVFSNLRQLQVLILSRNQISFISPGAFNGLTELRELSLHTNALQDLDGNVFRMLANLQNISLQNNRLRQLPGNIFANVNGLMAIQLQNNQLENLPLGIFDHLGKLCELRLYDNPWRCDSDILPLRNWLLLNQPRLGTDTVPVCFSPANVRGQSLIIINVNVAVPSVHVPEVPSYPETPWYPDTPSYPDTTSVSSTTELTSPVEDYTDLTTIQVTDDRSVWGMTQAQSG

T2: human EphB6 on transiently transfected Ad293 cells (human, UniProt O15197 32-1021)
T2 construct: whole, on cells; also called EphB6-expressing cells
T2 sequence (looked up): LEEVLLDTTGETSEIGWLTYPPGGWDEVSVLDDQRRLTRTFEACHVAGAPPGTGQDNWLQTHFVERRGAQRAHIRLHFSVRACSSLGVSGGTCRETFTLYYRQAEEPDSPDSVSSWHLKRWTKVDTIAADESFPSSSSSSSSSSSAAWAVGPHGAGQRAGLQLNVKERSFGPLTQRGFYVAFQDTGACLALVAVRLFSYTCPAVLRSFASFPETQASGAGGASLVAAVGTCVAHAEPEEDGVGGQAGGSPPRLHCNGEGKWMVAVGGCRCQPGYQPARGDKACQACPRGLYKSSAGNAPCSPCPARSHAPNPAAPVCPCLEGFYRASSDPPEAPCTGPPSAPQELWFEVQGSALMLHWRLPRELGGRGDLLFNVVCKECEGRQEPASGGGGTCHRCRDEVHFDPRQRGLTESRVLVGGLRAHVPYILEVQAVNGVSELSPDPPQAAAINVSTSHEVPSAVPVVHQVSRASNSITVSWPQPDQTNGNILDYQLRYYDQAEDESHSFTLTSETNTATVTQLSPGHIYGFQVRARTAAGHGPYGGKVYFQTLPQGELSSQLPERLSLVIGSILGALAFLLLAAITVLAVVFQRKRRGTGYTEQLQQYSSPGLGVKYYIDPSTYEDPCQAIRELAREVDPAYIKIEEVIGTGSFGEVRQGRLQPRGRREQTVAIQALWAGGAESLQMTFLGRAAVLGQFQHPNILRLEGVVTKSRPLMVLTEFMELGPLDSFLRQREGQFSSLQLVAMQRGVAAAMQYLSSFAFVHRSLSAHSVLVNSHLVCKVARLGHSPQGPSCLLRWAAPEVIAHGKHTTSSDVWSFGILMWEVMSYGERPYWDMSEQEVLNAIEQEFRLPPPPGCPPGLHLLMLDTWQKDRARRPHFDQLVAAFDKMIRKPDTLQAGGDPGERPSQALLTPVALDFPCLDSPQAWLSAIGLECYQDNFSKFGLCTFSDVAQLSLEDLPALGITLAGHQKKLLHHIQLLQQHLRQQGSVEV

B1: anti-GPC3 Fab (Fab, V domains shown)
VH: QVQLVQSGAEVKKPGASVKVSCKASGYTFTDYEMHWVRQAPGQGLEWMGALDPKTGDTAYSQKFKGRVTLTADKSTSTAYMELSSLTSEDTAVYYCTRFYSYTYWGQGTLVTVSS
VL: DVVMTQSPLSLPVTPGEPASISCRSSQSLVHSNRNTYLHWYLQKPGQSPQLLIYKVSNRFSGVPDRFSGSGSGTDFTLKISRVEAEDVGVYYCSQNTHVPPTFGQGTKLEIK
B2: anti-CD8 VHH (VHH)
VHH: EVQLLESGGGLVQPGGSLRLSCAASGFTFDDYAIGWFRQAPGKEREGVSCIRVSDGSTYYADSVKGRFTISRDNSKNTLYLQMNSLRAEDTAVYYCAAGSLYTCVQSIVWPARPYYDMDYWGQGTLV
notes: also called CD8 VHHb
B3: TPP-46958 (other)
light: not shown
heavy 1: EVQLVQSGAEVKKPGASVKVSCKASGYKFSSYWIEWVKQAPGQGLEWIGEILPGSDATNYAQKFQDRVTFTSDTSISTAYMELSRLRSDDTAVYYCARDRGNYRAWFGYWGQGTLVTVSSASTKGPSVFPLAPSSKSTSGGTAALGCLVKDYFPEPVTVSWNSGALTSGVHTFPAVLQSSGLYSLSSVVTVPSSSLGTQTYICNVNHKPSNTKVDKRVEPKSCDKTGGSEVQLVESGGGLVQPGGSLRLSCVASGDVHKINFLGWYRQAPGKEREKVAHISIGDQTDYADSAKGRFTISRDESKNMVYLQMNSLKPEDTAVYFCRAFSRIYPYDYWGQGTLVTVSSGGGGSTHTCPPCPAPPVAGPSVFLFPPKPKDTLMISRTPEVTCVVVDVKHEDPEVKFNWYVDGVEVHNAKTKPREEQYNSTYRVVSVLTVLHQDWLNGKEYKCKVSNKALPAPIEKTISKAKGQPREPQVCTLPPSREEMTKNQVSLSCAVKGFYPSDIAVEWESNGQPENNYKTTPPVLDSDGSFFLVSKLTVDKSRWQQGNVFSCSVMHEALHNRFTQKSLSLSPGK
heavy 2: EVQLVQSGAEVKKPGASVKVSCKASGYKFSSYWIEWVKQAPGQGLEWIGEILPGSDATNYAQKFQDRVTFTSDTSISTAYMELSRLRSDDTAVYYCARDRGNYRAWFGYWGQGTLVTVSSASTKGPSVFPLAPSSKSTSGGTAALGCLVKDYFPEPVTVSWNSGALTSGVHTFPAVLQSSGLYSLSSVVTVPSSSLGTQTYICNVNHKPSNTKVDKRVEPKSCDKTGGSEVQLLESGGGLVQPGGSLRLSCAASGFTFTDYAIGWFRQAPGKEREGVSCIRVSDGSTYYADSVKGRFTISRDSSKNTLYLQMNSLRAEDTAVYYCAAGSLYTCVQSIVWPARPYYDMDYWGQGTLVTVSSGGGGSTHTCPPCPAPPVAGPSVFLFPPKPKDTLMISRTPEVTCVVVDVKHEDPEVKFNWYVDGVEVHNAKTKPREEQYNSTYRVVSVLTVLHQDWLNGKEYKCKVSNKALPAPIEKTISKAKGQPREPQVYTLPPCREEMTKNQVSLWCLVKGFYPSDIAVEWESNGQPENNYKTTPPVLDSDGSFFLYSKLTVDKSRWQQGNVFSCSVMHEALHNHYTQKSLSLSPGK
notes: T-cell engager in the CD8/TCR format: 2x LRRC15 Fab, 1x TCR VHH, 1x CD8 VHH
B4: TPP-46960 (other)
light: not shown
heavy 1: B3 heavy 1 with A57T
heavy 2: B3 heavy 2 with A57T
notes: T-cell engager in the CD8/TCR format: 2x LRRC15 Fab, 1x TCR VHH, 1x CD8 VHH; Residue 55 of L-CDR2 is N

What was measured:
[1] = biological target: T3, soluble recombinant human GPC3 protein (human, UniProt P51654 25-559, biotinylated in the biolayer interferometry assay); assay: biolayer interferometry (Octet), biotinylated antigen on streptavidin biosensors
T3 construct: also called GPC3 human
T3 sequence (P51654 25-559 limits assumed): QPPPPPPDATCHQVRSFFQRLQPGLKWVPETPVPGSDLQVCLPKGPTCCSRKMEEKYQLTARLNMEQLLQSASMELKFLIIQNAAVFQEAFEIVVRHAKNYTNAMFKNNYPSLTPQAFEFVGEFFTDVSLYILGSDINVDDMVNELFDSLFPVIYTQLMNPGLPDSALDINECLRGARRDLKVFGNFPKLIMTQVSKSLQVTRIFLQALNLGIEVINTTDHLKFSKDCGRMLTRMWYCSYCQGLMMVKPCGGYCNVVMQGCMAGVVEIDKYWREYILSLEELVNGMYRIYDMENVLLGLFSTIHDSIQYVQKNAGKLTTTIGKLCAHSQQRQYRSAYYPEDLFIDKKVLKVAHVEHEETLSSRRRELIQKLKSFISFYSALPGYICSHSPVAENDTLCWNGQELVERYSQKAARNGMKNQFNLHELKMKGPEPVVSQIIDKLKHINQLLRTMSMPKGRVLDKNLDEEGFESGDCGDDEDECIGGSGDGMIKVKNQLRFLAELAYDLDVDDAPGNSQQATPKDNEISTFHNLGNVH
Experimental: (§1) Binding kinetics were measured by biolayer interferometry on an OCTET 384 instrument. Streptavidin (SA) biosensors were loaded with biotinylated protein antigens (ACRO Biosystems, Newark, DE) in PBS pH 7.2, 1 mg/mL BSA, 0.05% (v/v) TWEEN (Kinetic buffer). The loaded biosensors were washed in the same buffer before carrying out association and dissociation measurements with various antibodies for the indicated times. Kinetic parameters (Kₒₙ and Koff) and affinities (KD) were calculated from a non-linear fit of the data using the OCTET software v.12.2.1.24.

[2] = biological target: T4, soluble recombinant human CD8a protein (human, UniProt P01732 22-182, biotinylated); assay: biolayer interferometry (Octet RED384), biotinylated antigen on streptavidin biosensors
T4 construct: also called CD8α Human
T4 sequence (P01732 22-182 limits assumed): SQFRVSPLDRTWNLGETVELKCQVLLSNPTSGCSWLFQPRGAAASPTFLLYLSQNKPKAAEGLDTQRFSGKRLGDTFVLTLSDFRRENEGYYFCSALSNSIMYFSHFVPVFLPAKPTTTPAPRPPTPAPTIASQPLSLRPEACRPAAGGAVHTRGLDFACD
Experimental: as §1

[3] = biological target: T1, human LRRC15 recombinant extracellular …; assay: SPR single-cycle kinetics (Biacore 8K+), TCE captured on Protein G chip, LRRC15 ECD as analyte, 1:1 fit, average of 3 or 4 replicates
From the text: (§2) The fully corrected binding data were globally fitted to a 1:1 binding model to determine the KD using the Biacore™ Insight Evaluation Software (CYTIVA). Coloured sensorgram trace represents the raw data and black line the global 1:1 fit to that data. Values for kinetics parameters is shown in Table 8 are averages for 3 or 4 replicate sets of measurements.

[4] = biological target: T5, cyno LRRC15 recombinant extracellular domain protein (cyno, UniProt G7NYR2 22-538); assay: as above
T5 construct: extracellular domain; also called LRRC15 cyno
From the text: as §2

[5] = biological target: T2, human EphB6 on transiently transfected …; assay: Flow cytometry on Ad293 cells transiently transfected with human EphB6 (off-target binding)
From the text: Ad293 cells were transiently transfected with a plasmid expressing human EphB6.

Row | Binder | Kd [3] | Kd [4] | binding result [5] | also measured
1 | B1 | – | – | – | Kd [1]: 1.87 nM; koff [1]: 0.000422 s⁻¹; kon [1]: 226000 M⁻¹ s⁻¹
2 | B2 | – | – | – | Kd [2]: 55.3 nM; koff [2]: 0.0286 s⁻¹; kon [2]: 517000 M⁻¹ s⁻¹
3 | B3 | 3.1 nM | 6.4 nM | binds | –
4 | B4 | 0.98 nM | 2.24 nM | binds | –
